Results as given in article PMC4501363.

Target: actin-related protein 1 (human (endogenous in HEK293T)) (UniProt P61163)
Assay: co-sedimentation

- percent of Arp1 in the monomer/dimer pool: < 5%
Substance: actin-related protein 1 (from UniProt P61163 1-376) (natural protein)
